Experimental data from patent publication US20220042033A1, “COMPOSITION AND METHOD FOR CONFERRING AND/OR ENHANCING TOLERANCE AGAINST HERBICIDES BY USING VARIANTS OF PPO” (FarmHannong Co., Ltd., priority 2017, published 2022).

Columns and labels:
MxPPO [1] = assay: Herbicide tolerance test of MxPPO wild type and variants in PPO-deficient E. coli BT3(ΔPPO), growth on herbicide-containing LB agar; format: cell-based, Myxococcus xanthus; conditions: relative to MxPPO WT, light; for Herbicide tolerance, flumioxazin: up to 400 μM (FIGS. 15-17); for Herbicide tolerance, sulfentrazone: up to 1000 μM (FIGS. 18-20); for Herbicide tolerance, tiafenacil: 2000 μM (FIG. 14)
Description: Then, the extent of tolerance was evaluated.

MxPPO [2] = assay: PPO enzyme activity of purified MBP-fused MxPPO wild type and variants; format: biochemical, Myxococcus xanthus; conditions: PPO enzyme activity of purified MxPPO protein, relative to wild type
Description: Thus, PPO proteins of wild type and variants were expressed as fused to MBP and were used for experiments.
The following process for purification of PPO protein was performed in a 4° C. cold room. […] The column was washed with 3 column volumes of buffer and the presence of protein in the washing solution was examined. When the protein was no longer detected, the washing procedure was terminated. Then, the MBP-PPO protein was eluted with approximately 2 column volumes of buffer containing 20 mM maltose. The protein concentration of each eluent was determined and the elution was stopped when the protein was no longer detected. Ten microliter of each fraction was investigated for protein quantification and SDS-PAGE analysis. The highly pure fractions of PPO protein variants were used for the enzyme assay.
Since protoporphyrinogen IX, a substrate of PPO protein, was not commercially available, it was chemically synthesized in the laboratory. Overall process was performed in dark under nitrogen stream. […] of protoporphyrin IX was dissolved in 20 ml of 20% (v/v) EtOH, and stirred under dark condition for 30 minutes. The obtained protoporphyrin IX solution was put into a 15 ml screw tube in an amount of 800 μl, and flushed with nitrogen gas for 5 minutes. To this, 1.5 g of sodium amalgam was added and vigorously shaken for 2 minutes. The lid was opened to exhaust hydrogen gas in the tube. Thereafter, the lid was closed and incubated for 3 minutes. The protoporphyrinogen IX solution was filtered using syringe and cellulose membrane filter. To 600 μl of the obtained protoporphyrinogen IX solution, approximately 300 μl of 2M MOPS [3-(N-morpholino) propanesulfonic acid] was added to adjust pH to 8.0. To determine the enzyme activity of PPO protein, a reaction mixture was prepared with the following composition (based on 10 ml): 50 mM Tris-Cl (pH 8.0); 50 mM NaCl; 0.04% (v/v) Tween 20; 40 mM glucose (0.072 g); 5 units glucose oxidase (16.6 mg); and 10 units catalase (1 μl).
Hundred and eighty microliters of a reaction mixture […] were placed in 96 well plates and 20 μl of purified PPO proteins were added. After 50 μl of the mineral oil was layered, the reaction was initiated by adding the substrate, protoporphyrinogen IX solution, to a final concentration of 50 μM. The reaction proceeded at room temperature for 30 min and the fluorescence of protoporphyrin IX was measured using Microplate reader (Sense, Hidex) (excitation: 405 nm; emission: 633 nm). To calculate the PPO enzyme activity, the protoporphyrinogen IX solution was kept open in the air overnight to oxidize the solution. To this, 2.7 N HCl was added, and the absorbance at 408 nm was measured. A standard curve was generated using standard protoporphyrin IX, and PPO activity was measured by calibration of protoporphyrin IX using the standard curve of protoporphyrin IX.
Activities of variants were presented relatively compared to that of wild type.

B1: I168C + A170C + M365V: MxPPO (SEQ ID NO: 3) variant (protein)
chain: MHHMPRTTGMNVAVVGGGISGLAVAHHLRSRGTDAVLLESSARLGGAVGTHALAGYLVEQGPNSFLDREPATRALAAALNLEGRIRAADPAAKRRYVYTRGRLRSVPASPPAFLASDILPLGARLRVAGELFSRRAPEGVDESLAAFGRRHLGHRATQVLLDAVQTGCYCGDVEQLSVAATFPMLVKMEREHRSLILGAIRAQKAQRQAALPAGTAPKLSGALSTFDGGLQVLIDALAASLGDAAHVGARVEGLAREDGGWRLIIEEHGRRAELSVAQVVLAAPAHATAKLLRPLDDALAALVAGIAYAPIAVVHLGFDAGTLPAPDGFGFLVPAEEQRRMLGAIHASTTFPFRAEGGRVLYSCVVGGARQPGLVEQDEDALAALAREELKALAGVTARPSFTRVFRWPLGIPQYNLGHLERVAAIDAALQRLPGLHLIGNAYKGVGLNDCIRNAAQLADALVAGNTSHAP
modifications: Synthetic (Protoporphyrinogen IX oxidase (MxPPO) of Myxococcus xanthus)
MxPPO [1]
  Herbicide tolerance, flumioxazin: ++ (10-99 fold higher tolerance)
  Herbicide tolerance, sulfentrazone: ++ (10-99 fold higher tolerance)
MxPPO [2]
  Activity (%): 45%

B2: I311M + L332T + M365V: MxPPO (SEQ ID NO: 3) variant (protein)
chain: MHHMPRTTGMNVAVVGGGISGLAVAHHLRSRGTDAVLLESSARLGGAVGTHALAGYLVEQGPNSFLDREPATRALAAALNLEGRIRAADPAAKRRYVYTRGRLRSVPASPPAFLASDILPLGARLRVAGELFSRRAPEGVDESLAAFGRRHLGHRATQVLLDAVQTGIYAGDVEQLSVAATFPMLVKMEREHRSLILGAIRAQKAQRQAALPAGTAPKLSGALSTFDGGLQVLIDALAASLGDAAHVGARVEGLAREDGGWRLIIEEHGRRAELSVAQVVLAAPAHATAKLLRPLDDALAALVAGIAYAPMAVVHLGFDAGTLPAPDGFGFTVPAEEQRRMLGAIHASTTFPFRAEGGRVLYSCVVGGARQPGLVEQDEDALAALAREELKALAGVTARPSFTRVFRWPLGIPQYNLGHLERVAAIDAALQRLPGLHLIGNAYKGVGLNDCIRNAAQLADALVAGNTSHAP
modifications: Synthetic (Protoporphyrinogen IX oxidase (MxPPO) of Myxococcus xanthus)
MxPPO [1]
  Herbicide tolerance, tiafenacil: + (1-9 fold higher tolerance)
  Herbicide tolerance, flumioxazin: +++ (100-999 fold higher tolerance)
  Herbicide tolerance, sulfentrazone: ++ (10-99 fold higher tolerance)
MxPPO [2]
  Activity (%): 55%

B3: I168C + M365I: MxPPO (SEQ ID NO: 3) variant (protein)
chain: MHHMPRTTGMNVAVVGGGISGLAVAHHLRSRGTDAVLLESSARLGGAVGTHALAGYLVEQGPNSFLDREPATRALAAALNLEGRIRAADPAAKRRYVYTRGRLRSVPASPPAFLASDILPLGARLRVAGELFSRRAPEGVDESLAAFGRRHLGHRATQVLLDAVQTGCYAGDVEQLSVAATFPMLVKMEREHRSLILGAIRAQKAQRQAALPAGTAPKLSGALSTFDGGLQVLIDALAASLGDAAHVGARVEGLAREDGGWRLIIEEHGRRAELSVAQVVLAAPAHATAKLLRPLDDALAALVAGIAYAPIAVVHLGFDAGTLPAPDGFGFLVPAEEQRRMLGAIHASTTFPFRAEGGRVLYSCIVGGARQPGLVEQDEDALAALAREELKALAGVTARPSFTRVFRWPLGIPQYNLGHLERVAAIDAALQRLPGLHLIGNAYKGVGLNDCIRNAAQLADALVAGNTSHAP
modifications: Synthetic (Protoporphyrinogen IX oxidase (MxPPO) of Myxococcus xanthus)
MxPPO [1]
  Herbicide tolerance, flumioxazin: + (1-9 fold higher tolerance)
  Herbicide tolerance, sulfentrazone: + (1-9 fold higher tolerance)
MxPPO [2]
  Activity (%): 45%

B4: I168C + I311M + M365I: MxPPO (SEQ ID NO: 3) variant (protein)
chain: MHHMPRTTGMNVAVVGGGISGLAVAHHLRSRGTDAVLLESSARLGGAVGTHALAGYLVEQGPNSFLDREPATRALAAALNLEGRIRAADPAAKRRYVYTRGRLRSVPASPPAFLASDILPLGARLRVAGELFSRRAPEGVDESLAAFGRRHLGHRATQVLLDAVQTGCYAGDVEQLSVAATFPMLVKMEREHRSLILGAIRAQKAQRQAALPAGTAPKLSGALSTFDGGLQVLIDALAASLGDAAHVGARVEGLAREDGGWRLIIEEHGRRAELSVAQVVLAAPAHATAKLLRPLDDALAALVAGIAYAPMAVVHLGFDAGTLPAPDGFGFLVPAEEQRRMLGAIHASTTFPFRAEGGRVLYSCIVGGARQPGLVEQDEDALAALAREELKALAGVTARPSFTRVFRWPLGIPQYNLGHLERVAAIDAALQRLPGLHLIGNAYKGVGLNDCIRNAAQLADALVAGNTSHAP
modifications: Synthetic (Protoporphyrinogen IX oxidase (MxPPO) of Myxococcus xanthus)
MxPPO [1]
  Herbicide tolerance, tiafenacil: + (1-9 fold higher tolerance)
  Herbicide tolerance, flumioxazin: ++ (10-99 fold higher tolerance)
  Herbicide tolerance, sulfentrazone: + (1-9 fold higher tolerance)
MxPPO [2]
  Activity (%): 47%

B5: I168C + L332T + M365V: MxPPO (SEQ ID NO: 3) variant (protein)
chain: MHHMPRTTGMNVAVVGGGISGLAVAHHLRSRGTDAVLLESSARLGGAVGTHALAGYLVEQGPNSFLDREPATRALAAALNLEGRIRAADPAAKRRYVYTRGRLRSVPASPPAFLASDILPLGARLRVAGELFSRRAPEGVDESLAAFGRRHLGHRATQVLLDAVQTGCYAGDVEQLSVAATFPMLVKMEREHRSLILGAIRAQKAQRQAALPAGTAPKLSGALSTFDGGLQVLIDALAASLGDAAHVGARVEGLAREDGGWRLIIEEHGRRAELSVAQVVLAAPAHATAKLLRPLDDALAALVAGIAYAPIAVVHLGFDAGTLPAPDGFGFTVPAEEQRRMLGAIHASTTFPFRAEGGRVLYSCVVGGARQPGLVEQDEDALAALAREELKALAGVTARPSFTRVFRWPLGIPQYNLGHLERVAAIDAALQRLPGLHLIGNAYKGVGLNDCIRNAAQLADALVAGNTSHAP
modifications: Synthetic (Protoporphyrinogen IX oxidase (MxPPO) of Myxococcus xanthus)
MxPPO [1]
  Herbicide tolerance, tiafenacil: + (1-9 fold higher tolerance)
  Herbicide tolerance, flumioxazin: +++ (100-999 fold higher tolerance)
  Herbicide tolerance, sulfentrazone: ++ (10-99 fold higher tolerance)
MxPPO [2]
  Activity (%): 49%

B6: A170C + I311M + M365I: MxPPO (SEQ ID NO: 3) variant (protein)
chain: MHHMPRTTGMNVAVVGGGISGLAVAHHLRSRGTDAVLLESSARLGGAVGTHALAGYLVEQGPNSFLDREPATRALAAALNLEGRIRAADPAAKRRYVYTRGRLRSVPASPPAFLASDILPLGARLRVAGELFSRRAPEGVDESLAAFGRRHLGHRATQVLLDAVQTGIYCGDVEQLSVAATFPMLVKMEREHRSLILGAIRAQKAQRQAALPAGTAPKLSGALSTFDGGLQVLIDALAASLGDAAHVGARVEGLAREDGGWRLIIEEHGRRAELSVAQVVLAAPAHATAKLLRPLDDALAALVAGIAYAPMAVVHLGFDAGTLPAPDGFGFLVPAEEQRRMLGAIHASTTFPFRAEGGRVLYSCIVGGARQPGLVEQDEDALAALAREELKALAGVTARPSFTRVFRWPLGIPQYNLGHLERVAAIDAALQRLPGLHLIGNAYKGVGLNDCIRNAAQLADALVAGNTSHAP
modifications: Synthetic (Protoporphyrinogen IX oxidase (MxPPO) of Myxococcus xanthus)
MxPPO [1]
  Herbicide tolerance, flumioxazin: ++ (10-99 fold higher tolerance)
  Herbicide tolerance, sulfentrazone: + (1-9 fold higher tolerance)
MxPPO [2]
  Activity (%): 69%
